Test results taken from US20100172914A1 (MAYO FOUNDATION FOR MEDICAL EDUCATION AND RESEARCH, published 2010).

Biological target: T1, TRAIL R1-Fc fusion protein (UniProt O00220 24-239, limits assumed)
T1 construct: The construct is not described beyond its name; not shown: Fc portion
Assay: immunoprecipitation with receptor-Fc from lysates of HA-TRAIL-s transfected 293T cells, Western blot

T1 sequence (O00220 24-239 limits assumed): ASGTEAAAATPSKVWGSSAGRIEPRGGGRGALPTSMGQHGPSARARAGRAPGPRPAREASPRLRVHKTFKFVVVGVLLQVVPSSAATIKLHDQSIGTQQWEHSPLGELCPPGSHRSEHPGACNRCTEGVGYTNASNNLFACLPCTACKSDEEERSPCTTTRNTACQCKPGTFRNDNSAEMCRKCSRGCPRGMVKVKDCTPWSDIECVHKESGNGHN

binding result: no binding
B1: HA-tagged TRAIL-s (ligand)
chain: MAMMEVQGGPSLGQTCVLIVIFTVLLQSLCVAVTYVYFTNELKQMQDKYSKSGIACFLKEDDSYWDPNDEESMNSPCWQVKWQLRQLVRKTPRMKRLWAAK
notes: also called HA-TRAIL-s; not shown: HA tag of the HA-pcDNA3 vector
